According to article PMC11784139:
Blank lines part the entries; values can stand above or below the substance they belong to.

Columns and labels:
[1] = target: 6 × His-tagged APR1 (AlmA Positive Regulator) (Acinetobacter venetianus RAG-1); test: cross-linking; 0.1% glutaraldehyde added to 5 µg purified 6 × His-tagged APR1 in 50 mM Tris-HCl (pH 8.0), 10% glycerol; 0.5–1 h at 30°C; analysed by SDS-PAGE
[2] = system: 6xHis-APR1 (Acinetobacter venetianus RAG-1); test: MST; conditions: EMSA: 5 mM Tris-HCl pH 7.5, 0.1 mM EDTA, 5 mM MgCl2, 10 mM KCl, 0.2 mM DTT, 30 C, 30 min, native PAGE in 0.5x TBE; MST: 50 mM PBS pH 7.2-7.4, temperature not …
[3] = system: T1, 6xHis-APR1 (Acinetobacter venetianus RAG-1), ORF:d17a4b85; test: EMSA; conditions: EMSA: 5 mM Tris-HCl pH 7.5, 0.1 mM EDTA, 5 mM MgCl2, 10 mM KCl, 0.2 mM DTT, 30 C, 30 min, native PAGE in 0.5x TBE; MST: 50 mM PBS pH 7.2-7.4, temperature not …
T1 sequence: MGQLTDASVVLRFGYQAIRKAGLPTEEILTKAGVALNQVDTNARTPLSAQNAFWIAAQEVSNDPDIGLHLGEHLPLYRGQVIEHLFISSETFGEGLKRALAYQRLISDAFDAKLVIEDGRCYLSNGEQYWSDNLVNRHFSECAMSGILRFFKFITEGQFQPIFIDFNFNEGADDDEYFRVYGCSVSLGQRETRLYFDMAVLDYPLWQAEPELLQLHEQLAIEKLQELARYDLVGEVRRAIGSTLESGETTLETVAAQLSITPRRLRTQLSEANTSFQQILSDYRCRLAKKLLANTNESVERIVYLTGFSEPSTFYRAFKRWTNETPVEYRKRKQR

- stoichiometry N [1]: 2
Substance: 6 × His-tagged APR1 (AlmA Positive Regulator) (natural protein)

Substance: almA promoter
- Kd [2]: 97.2 nM

Substance: AGCCTACCTGATGATCAAATTGGAAAGGCGCAAATTATAGTCAATTTATTTGAAATTTACAAGACGCTCTCTTAGCAAAGCTTGTACAGATGAATTGGAAAAAACTGTCAGACAATCCTCATTTTTTTTTAACAAAAGAAGCAGAATAGTGTTGTCAGTTTGGTCAATCAACGTTAATCTAAAATTATTGTTTATTGTCACAATAACGTATCTACAGGGAAGGGCACTGC (double strand) [apR1 promoter]
- binding [3]: binds
